One experiment deals with T1, FcγRIIa H (human, UniProt P12318 34-217).
T1 construct: extracellular domain; also called FcgRIIa H; FcγRIIa type H
T1 sequence (looked up): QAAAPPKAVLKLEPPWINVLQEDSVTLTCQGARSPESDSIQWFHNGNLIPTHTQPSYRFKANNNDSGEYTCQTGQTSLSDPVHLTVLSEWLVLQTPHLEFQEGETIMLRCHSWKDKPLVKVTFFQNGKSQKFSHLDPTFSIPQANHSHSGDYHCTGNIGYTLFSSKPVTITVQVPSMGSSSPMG
The experiment in a line: SPR (Biacore), antibody captured, FcγR analyte; binding relative to GpH7-A5/GpH7-B3/GpL16-k0 = 100. (In SPR one partner is held on a chip, and binding of the other changes the refractive index at the surface.)

The next experiment deals with T2, FcγRIIb (human, UniProt P31994 43-217).
T2 construct: extracellular domain; also called FcgRIIb; 2b
T2 sequence (looked up): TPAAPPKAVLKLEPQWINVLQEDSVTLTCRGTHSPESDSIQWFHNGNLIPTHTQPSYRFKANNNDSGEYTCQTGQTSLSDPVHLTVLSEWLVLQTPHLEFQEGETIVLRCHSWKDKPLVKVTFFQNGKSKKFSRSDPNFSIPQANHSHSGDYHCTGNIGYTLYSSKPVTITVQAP
Described as above.

B1: GpH7-A5/GpH7-B3 variant P271_09D/GpL16-k0 (antibody, human IgG1, kappa)
heavy 1: not shown
heavy 2: not shown
light: DIVMTQSPLSLPVTPGEPASISCQASESLVHSNRNTYLHWYLQKPGQSPQLLIYKVSNRFSGVPDRFSGSGSGTDFTLKISRVEAEDVGVYYCSQNTHVPPTFGQGTKVEIERTVAAPSVFIFPPSDEQLKSGTASVVCLLNNFYPREAKVQWKVDNALQSGNSQESVTEQDSKDSTYSLSSTLTLSKADYEKHKVYACEVTHQGLSSPVTKSFNRGEC
notes: Heterodimerized antibody, alteration in one H chain only; also called He Ab P271D
In the case of B1, the He/Con_2aH with FcγRIIa H was 70.1 % of control. Further, the He/Con_2b in the experiment with FcγRIIb is 120 % of control.

B2: GpH7-A5/GpH7-B3 variant S239_03V/GpL16-k0 (antibody, human IgG1, kappa)
heavy 1: not shown
heavy 2: not shown
light: DIVMTQSPLSLPVTPGEPASISCQASESLVHSNRNTYLHWYLQKPGQSPQLLIYKVSNRFSGVPDRFSGSGSGTDFTLKISRVEAEDVGVYYCSQNTHVPPTFGQGTKVEIERTVAAPSVFIFPPSDEQLKSGTASVVCLLNNFYPREAKVQWKVDNALQSGNSQESVTEQDSKDSTYSLSSTLTLSKADYEKHKVYACEVTHQGLSSPVTKSFNRGEC
notes: Heterodimerized antibody, alteration in one H chain only; also called He Ab S239V
For B2, the He/Con_2aH with FcγRIIa H was 91 % of control. Also, in the experiment with FcγRIIb, the He/Con_2b was 108 % of control.

B3: GpH7-A5/GpH7-B3 variant S298_06M/GpL16-k0 (antibody, human IgG1, kappa)
heavy 1: not shown
heavy 2: not shown
light: DIVMTQSPLSLPVTPGEPASISCQASESLVHSNRNTYLHWYLQKPGQSPQLLIYKVSNRFSGVPDRFSGSGSGTDFTLKISRVEAEDVGVYYCSQNTHVPPTFGQGTKVEIERTVAAPSVFIFPPSDEQLKSGTASVVCLLNNFYPREAKVQWKVDNALQSGNSQESVTEQDSKDSTYSLSSTLTLSKADYEKHKVYACEVTHQGLSSPVTKSFNRGEC
notes: Heterodimerized antibody, alteration in one H chain only; also called He Ab S298M
Consider B3, for which, in the experiment with FcγRIIa H, the He/Con_2aH is 98.1 % of control. The He/Con_2b with FcγRIIb is 102 % of control.

B4: GpH7-A5/GpH7-B3 variant S267_06M/GpL16-k0 (antibody, human IgG1, kappa)
heavy 1: not shown
heavy 2: not shown
light: DIVMTQSPLSLPVTPGEPASISCQASESLVHSNRNTYLHWYLQKPGQSPQLLIYKVSNRFSGVPDRFSGSGSGTDFTLKISRVEAEDVGVYYCSQNTHVPPTFGQGTKVEIERTVAAPSVFIFPPSDEQLKSGTASVVCLLNNFYPREAKVQWKVDNALQSGNSQESVTEQDSKDSTYSLSSTLTLSKADYEKHKVYACEVTHQGLSSPVTKSFNRGEC
notes: Heterodimerized antibody, alteration in one H chain only; also called He Ab S267M
As to B4, the He/Con_2aH with FcγRIIa H was 34.3 % of control. Further, the He/Con_2b in the experiment with FcγRIIb is 210 % of control.

B5: GpH7-A5/GpH7-B3 variant S239_06M/GpL16-k0 (antibody, human IgG1, kappa)
heavy 1: not shown
heavy 2: not shown
light: DIVMTQSPLSLPVTPGEPASISCQASESLVHSNRNTYLHWYLQKPGQSPQLLIYKVSNRFSGVPDRFSGSGSGTDFTLKISRVEAEDVGVYYCSQNTHVPPTFGQGTKVEIERTVAAPSVFIFPPSDEQLKSGTASVVCLLNNFYPREAKVQWKVDNALQSGNSQESVTEQDSKDSTYSLSSTLTLSKADYEKHKVYACEVTHQGLSSPVTKSFNRGEC
notes: Heterodimerized antibody, alteration in one H chain only; also called He Ab S239M
B5: the He/Con_2aH with FcγRIIa H is 98.6 % of control. Further, the He/Con_2b with FcγRIIb is 101 % of control.

B6: GpH7-A5/GpH7-B3 variant P271_10E/GpL16-k0 (antibody, human IgG1, kappa)
heavy 1: not shown
heavy 2: not shown
light: DIVMTQSPLSLPVTPGEPASISCQASESLVHSNRNTYLHWYLQKPGQSPQLLIYKVSNRFSGVPDRFSGSGSGTDFTLKISRVEAEDVGVYYCSQNTHVPPTFGQGTKVEIERTVAAPSVFIFPPSDEQLKSGTASVVCLLNNFYPREAKVQWKVDNALQSGNSQESVTEQDSKDSTYSLSSTLTLSKADYEKHKVYACEVTHQGLSSPVTKSFNRGEC
notes: Heterodimerized antibody, alteration in one H chain only; also called He Ab P271E
Turning to B6, the He/Con_2aH with FcγRIIa H is 63.1 % of control. In addition, the He/Con_2b in the experiment with FcγRIIb is 109 % of control.

B7: GpH7-A5/GpH7-B3 variant S267_14T/GpL16-k0 (antibody, human IgG1, kappa)
heavy 1: not shown
heavy 2: not shown
light: DIVMTQSPLSLPVTPGEPASISCQASESLVHSNRNTYLHWYLQKPGQSPQLLIYKVSNRFSGVPDRFSGSGSGTDFTLKISRVEAEDVGVYYCSQNTHVPPTFGQGTKVEIERTVAAPSVFIFPPSDEQLKSGTASVVCLLNNFYPREAKVQWKVDNALQSGNSQESVTEQDSKDSTYSLSSTLTLSKADYEKHKVYACEVTHQGLSSPVTKSFNRGEC
notes: Heterodimerized antibody, alteration in one H chain only; also called He Ab S267T
On to B7, for which, in the experiment with FcγRIIa H, the He/Con_2aH was 63.3 % of control. The He/Con_2b with FcγRIIb is 104 % of control.

B8: GpH7-A5/GpH7-B3 variant S239_05P/GpL16-k0 (antibody, human IgG1, kappa)
heavy 1: not shown
heavy 2: not shown
light: DIVMTQSPLSLPVTPGEPASISCQASESLVHSNRNTYLHWYLQKPGQSPQLLIYKVSNRFSGVPDRFSGSGSGTDFTLKISRVEAEDVGVYYCSQNTHVPPTFGQGTKVEIERTVAAPSVFIFPPSDEQLKSGTASVVCLLNNFYPREAKVQWKVDNALQSGNSQESVTEQDSKDSTYSLSSTLTLSKADYEKHKVYACEVTHQGLSSPVTKSFNRGEC
notes: Heterodimerized antibody, alteration in one H chain only; also called He Ab S239P
Regarding B8, the He/Con_2aH with FcγRIIa H is 33.3 % of control. Further, the He/Con_2b with FcγRIIb was 102 % of control.

B9: GpH7-A5/GpH7-B3 variant S267_19Q/GpL16-k0 (antibody, human IgG1, kappa)
heavy 1: not shown
heavy 2: not shown
light: DIVMTQSPLSLPVTPGEPASISCQASESLVHSNRNTYLHWYLQKPGQSPQLLIYKVSNRFSGVPDRFSGSGSGTDFTLKISRVEAEDVGVYYCSQNTHVPPTFGQGTKVEIERTVAAPSVFIFPPSDEQLKSGTASVVCLLNNFYPREAKVQWKVDNALQSGNSQESVTEQDSKDSTYSLSSTLTLSKADYEKHKVYACEVTHQGLSSPVTKSFNRGEC
notes: Heterodimerized antibody, alteration in one H chain only; also called He Ab S267Q
With B9, the He/Con_2aH with FcγRIIa H was 61.3 % of control. In addition, the He/Con_2b in the experiment with FcγRIIb was 218 % of control.

The values above are taken from patent publication US20150344570A1 (published 2015).
